Molecular target: VEGF165 (VEGF A165) (UniProt P15692-4 27-191)
Assay: electrochemical impedance spectroscopy (aptasensor); 10 pg/ml-1 ug/ml VEGF, 60 min; LOD 8.2 pg/ml (not a Kd); VEGF incubated 60 min (37 C in the time optimisation) on BSA-blocked aptamer/CME NP electrode, water wash; EIS in 0.1 M PBS pH 7.4 with 5 mM [Fe(CN)6]3-/4-
Conditions: protein: commercial; chain copies: 2; hairpin

Sequence of VEGF165 (VEGF A165) (P15692 other isoform, or with tags, fused parts or gaps): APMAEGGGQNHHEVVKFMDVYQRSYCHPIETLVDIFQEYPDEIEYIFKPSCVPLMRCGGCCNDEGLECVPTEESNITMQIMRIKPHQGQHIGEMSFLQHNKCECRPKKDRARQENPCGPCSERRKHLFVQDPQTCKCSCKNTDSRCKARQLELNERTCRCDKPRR

AAAAAAAAAACCGTCTTCCAGACAAGAGTGCAGGGAAAAAGAAGACGG (structured_DNA, 5' carboxylic acid) [VEGF aptamer with 5' A10 spacer]: binds.
